We go through 19 substances from patent publication US20240368668A1, “SUBSTRATES AND BIOMARKERS OF ADAMTS7” (The Broad Institute, Inc., priority 2021, published 2024).

The test deals with T1, mouse ADAMTS7 (Mus musculus, UniProt Q68SA9).
T1 construct: Full-length mouse Adamts7 1-1857 (Uniprot Q68SA9, WT or E373Q catalytic mutant); expressed in transfected cells; host or cells: Human Coronary Artery Smooth Muscle Cells (HCA-SMC, Lonza), adenovirus 50 MOI
T1 sequence (Q68SA9 221-1657): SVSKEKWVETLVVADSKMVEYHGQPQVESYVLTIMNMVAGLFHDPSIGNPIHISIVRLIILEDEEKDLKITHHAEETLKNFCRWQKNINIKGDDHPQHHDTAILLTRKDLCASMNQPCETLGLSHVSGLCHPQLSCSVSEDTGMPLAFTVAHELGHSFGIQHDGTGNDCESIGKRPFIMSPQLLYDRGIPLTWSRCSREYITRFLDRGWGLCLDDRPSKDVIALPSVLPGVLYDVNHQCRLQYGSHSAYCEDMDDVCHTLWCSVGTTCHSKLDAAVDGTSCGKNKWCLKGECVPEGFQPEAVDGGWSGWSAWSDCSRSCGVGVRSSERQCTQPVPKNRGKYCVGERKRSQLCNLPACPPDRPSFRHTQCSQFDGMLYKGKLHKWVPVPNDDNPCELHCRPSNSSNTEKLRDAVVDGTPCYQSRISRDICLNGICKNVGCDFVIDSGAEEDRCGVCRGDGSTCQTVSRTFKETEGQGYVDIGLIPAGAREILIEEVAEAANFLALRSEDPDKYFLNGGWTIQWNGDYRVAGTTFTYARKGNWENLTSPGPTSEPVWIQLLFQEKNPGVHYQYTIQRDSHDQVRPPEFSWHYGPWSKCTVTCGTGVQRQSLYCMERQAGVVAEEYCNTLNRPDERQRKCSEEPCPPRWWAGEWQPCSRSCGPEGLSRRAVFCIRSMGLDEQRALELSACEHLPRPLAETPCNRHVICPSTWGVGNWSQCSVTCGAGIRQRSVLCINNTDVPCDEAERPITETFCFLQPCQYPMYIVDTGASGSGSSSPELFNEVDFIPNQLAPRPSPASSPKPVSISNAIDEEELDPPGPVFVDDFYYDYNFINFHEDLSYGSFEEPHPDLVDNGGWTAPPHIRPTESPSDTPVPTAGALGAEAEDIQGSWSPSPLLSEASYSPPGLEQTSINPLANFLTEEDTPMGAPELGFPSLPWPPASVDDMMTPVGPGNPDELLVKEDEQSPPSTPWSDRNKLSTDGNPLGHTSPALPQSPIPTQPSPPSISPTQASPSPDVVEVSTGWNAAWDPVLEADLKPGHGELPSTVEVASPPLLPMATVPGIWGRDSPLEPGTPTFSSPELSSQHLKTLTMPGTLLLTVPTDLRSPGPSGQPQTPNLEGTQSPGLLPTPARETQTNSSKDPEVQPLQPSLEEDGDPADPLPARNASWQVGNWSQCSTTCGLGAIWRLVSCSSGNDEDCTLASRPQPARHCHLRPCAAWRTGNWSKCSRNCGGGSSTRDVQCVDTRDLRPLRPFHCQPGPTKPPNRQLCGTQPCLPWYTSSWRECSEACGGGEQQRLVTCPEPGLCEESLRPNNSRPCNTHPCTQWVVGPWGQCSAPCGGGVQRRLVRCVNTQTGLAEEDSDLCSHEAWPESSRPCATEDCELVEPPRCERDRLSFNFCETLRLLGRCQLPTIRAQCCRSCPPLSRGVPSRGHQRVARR
Kind of test: TMT10 TAILS N-terminomics, SMC1 experiment (Ad-mADAMTS7 WT vs EQ vs Luc, technical replicates, trypsin digest). The class given is cell-based. The note with it: TAILS neo-N-terminal peptide abundance; log fold change, Ad-mADAMTS7 WT over Luc. A digest of the protocol: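 Full-length mouse ADAMTS7 (WT or E373Q mutant, C-terminal 3xFLAG) or luciferase was transduced via adenovirus, 50 MOI, into HCA-SMC (SMC1, SMC2) or HUVEC. SMC1: pooled media, technical triplicates 400 ug; SMC2: process triplicates 300 ug; HUVEC: process triplicates 200 ug, bFGF2 10 ng/ml.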
As to “LOXL2_318 (AYKPEQPLVR; listed as Homo sapiens)”, the logFC.mWT.over.Lux is listed as 0.78. Consider “LOX_58 (LSLGSQYQPQR; listed as Homo sapiens)”, for which the logFC.mWT.over.Lux was 0.88. Then “LOX_80 (ANASAQQPR; listed as Homo sapiens)”, with 2.02; and “LOX_81 (NASAQQPR; listed as Homo sapiens)”, with 1.38; and “LOX_123 (HWFQAGYSTSR; listed as Homo sapiens)”, with 1.60.

Turning to “LOX_124 (WFQAGYSTSR; listed as Homo sapiens)”, the logFC.mWT.over.Lux was found to be 3.70. Then “LOX_126 (QAGYSTSR; listed as Homo sapiens)”, with 1.61; and “LTBP1_393 (LTATNFR; listed as Homo sapiens)”, with 4.03. Then “LTBP1_494 (SVQIHQVSR; listed as Homo sapiens)”, with 2.61. The figure for “LTBP1_540 (HQQVIPHVYPVAAKTQLGR; listed as Homo sapiens)” is 2.83. The substance “LTBP1_546 (HVYPVAAKTQLGR; listed as Homo sapiens)” showed a logFC.mWT.over.Lux of 3.62. The figure for “LTBP2_485 (SVQIHQVAQVR; listed as Homo sapiens)” is 1.80; for “LTBP2_533 (SGEPPRPLPPAAPR; listed as Homo sapiens)” it is 1.34.

Substance “LTBP2_677 (SLGPGTCTLPLAQR; listed as Homo sapiens)” returned a logFC.mWT.over.Lux of 0.90.

As to “LTBP2_760 (SSGALPGPAER; listed as Homo sapiens)”, the logFC.mWT.over.Lux worked out at 1.54. Regarding “LTBP2_1023 (GKCTNLEGSFR; listed as Homo sapiens)”, the logFC.mWT.over.Lux is given as 0.74. The substance “LTBP2_1371 (SGQKGHAPCSSVLGR; listed as Homo sapiens)” had a logFC.mWT.over.Lux of 1.24. Then “LTBP2_1560 (TTYTECCCQDGEAWSQQCALCPPR; listed as Homo sapiens)”, with 0.94; and “LTBP2_1584 (SSEVYAQLCNVAR; listed as Homo sapiens)”, with 1.40.
